This passage reports IC50 and Kd results from publication PMC4258549.

Common to all, as to experiment: AlphaScreen or HTRF
For orientation: Alpha assays give light when donor and acceptor beads are brought close together.

For assay [1], the target named is biotinylated C4b (human).
The target in assay [2] is biotinylated C4b (human). This is another data set of the same source.
Assay [3] has as its target myc-tagged Eap (Staphylococcus aureus) (UniProt Q99QS1).

Where two headings read alike, the source gives them in different places.

myc-tagged Eap (Staphylococcus aureus), sequence (Q99QS1 31-476): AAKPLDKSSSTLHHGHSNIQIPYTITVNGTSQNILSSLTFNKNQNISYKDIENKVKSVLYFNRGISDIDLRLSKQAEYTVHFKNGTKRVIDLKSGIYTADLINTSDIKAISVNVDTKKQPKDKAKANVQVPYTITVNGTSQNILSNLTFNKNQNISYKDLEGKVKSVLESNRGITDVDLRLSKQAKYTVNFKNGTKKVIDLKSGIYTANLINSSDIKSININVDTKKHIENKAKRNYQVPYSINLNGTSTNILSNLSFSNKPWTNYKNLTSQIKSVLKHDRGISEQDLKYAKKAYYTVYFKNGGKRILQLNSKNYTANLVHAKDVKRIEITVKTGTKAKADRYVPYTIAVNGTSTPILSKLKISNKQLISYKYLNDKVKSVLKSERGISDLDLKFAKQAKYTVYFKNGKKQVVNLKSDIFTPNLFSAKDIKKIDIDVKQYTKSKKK
C4b-binding protein, sequence (P04003 49-597): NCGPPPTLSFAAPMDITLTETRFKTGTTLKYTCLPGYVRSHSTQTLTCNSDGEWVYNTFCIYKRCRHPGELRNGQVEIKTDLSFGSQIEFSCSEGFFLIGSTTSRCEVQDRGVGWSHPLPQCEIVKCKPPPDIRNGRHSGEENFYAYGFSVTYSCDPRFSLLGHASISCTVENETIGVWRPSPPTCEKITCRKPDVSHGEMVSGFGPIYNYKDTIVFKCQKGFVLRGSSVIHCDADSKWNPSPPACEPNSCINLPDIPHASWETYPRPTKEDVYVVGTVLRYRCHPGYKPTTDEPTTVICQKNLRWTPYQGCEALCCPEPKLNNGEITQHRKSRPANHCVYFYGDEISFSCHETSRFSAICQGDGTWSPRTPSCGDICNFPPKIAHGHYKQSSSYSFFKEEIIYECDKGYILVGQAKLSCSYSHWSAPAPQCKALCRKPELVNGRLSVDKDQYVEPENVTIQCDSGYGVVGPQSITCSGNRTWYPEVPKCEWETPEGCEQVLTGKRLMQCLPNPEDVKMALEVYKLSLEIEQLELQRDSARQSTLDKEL
C4b-binding protein, sequence (P20851 18-252): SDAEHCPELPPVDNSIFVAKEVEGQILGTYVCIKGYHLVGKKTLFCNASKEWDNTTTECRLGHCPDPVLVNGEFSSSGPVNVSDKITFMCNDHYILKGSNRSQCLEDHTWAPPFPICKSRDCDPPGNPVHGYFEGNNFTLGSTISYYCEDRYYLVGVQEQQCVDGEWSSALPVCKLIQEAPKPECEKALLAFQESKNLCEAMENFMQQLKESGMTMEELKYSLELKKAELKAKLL

Broadly, the IC50 is the concentration needed to halve the response being measured. In assay [1], “C2b fragment of complement component C2, recombinant (domain or fragment)” displayed an IC50 of 3500 nM. This counts as single-digit micromolar. Turning to “C4b-binding protein (from UniProt P04003 49-597; P20851 18-252) (complex)”, the IC50 in assay [2] was found to be 13 nM; in assay [1], 21 nM. The term Kd denotes the concentration at which binding is half-saturated. Lower therefore signals tighter binding. In assay [3], C4c (complex) showed a Kd of 138 nM. The same measure, in the same setting: under “native complement component C4 (complex)” stands 45 nM.
